Measurements published in paper doi:10.1101/2020.09.30.318261.

Molecular target: SARS-CoV prefusion stabilised spike ectodomain trimer (SARS-CoV) (UniProt P59594)
Assay: cryo-EM structure

## SARS-CoV prefusion stabilised spike ectodomain trimer (from UniProt P59594 14-1160) (domain or fragment)
  stoichiometry N: 3
